# Publication PMC12865133, “Macrocyclic Molecular Glues for the 14‐3‐3/ChREBP Interaction: Affinity and Cooperativity in an Inverse Relationship” (Angewandte Chemie (International Ed. in English), 2025)
# Where “and” joins values, the source holds several entries; their conditions need not be identical. Identical values can stand only once. Bridges are numbered along the chain shown (N, C = ends). Where no end group is shown, it is not given here. [ ]: non-standard residue; d: D form. Phe(4-NO2) = N[C@@H](Cc1ccc([N+](=O)[O-])cc1)C(=O)O; pS = N[C@@H](COP(=O)(O)O)C(=O)O; azidoPhe = azido phenylalanine; β3hS = N[C@@H](CO)CC(=O)O; βAla = NCCC(=O)O
# Key:
# Settings in all cases: both partners purified
# [1] = target: T1, full-length human 14-3-3β protein with a N-terminal His6 tag (human, UniProt P31946 1-246); experiment: fluorescence polarisation; 2D fluorescence anisotropy titration, replicate 1: 14-3-3β titrated (from 250 µM) to FITC-labeled macrocycle or pepD with varying ChREBP peptide starting at 20 μM; KD I (binary affinity of the macrocycle for a site of the 14-3-3 dimer) fitted by the thermodynamic cooperativity model with KD II fixed at 1.5 µM; 10 mM HEPES pH 7.4, 150 mM NaCl, 0.1% Tween20, 0.1% BSA; room temperature
# T1 construct: 14-3-3 protein beta/alpha, human, full length; Treated as a dimer in the thermodynamic model (Pp = 14-3-3 dimer); also called Pp (14-3-3 dimer); source: E. coli BL21(DE3), pPROEX HTb, purified (Ni-NTA, dialysis)
# T1 sequence (looked up): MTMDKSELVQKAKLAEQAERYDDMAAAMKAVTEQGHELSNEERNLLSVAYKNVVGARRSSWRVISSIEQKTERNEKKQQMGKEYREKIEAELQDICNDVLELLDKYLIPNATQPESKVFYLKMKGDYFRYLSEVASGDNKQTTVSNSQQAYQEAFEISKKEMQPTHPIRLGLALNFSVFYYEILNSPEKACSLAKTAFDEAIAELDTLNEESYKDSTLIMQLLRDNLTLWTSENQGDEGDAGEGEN
# [2] = target: T1, full-length human 14-3-3β protein with …; experiment: fluorescence polarisation; 2D fluorescence anisotropy titration, replicate 2: 14-3-3β titrated (from 250 µM) to FITC-labeled macrocycle or pepD with varying ChREBP peptide starting at 10 μM; KD I (binary affinity of the macrocycle for a site of the 14-3-3 dimer) fitted by the thermodynamic cooperativity model with KD II fixed at 1.5 µM; 10 mM HEPES pH 7.4, 150 mM NaCl, 0.1% Tween20, 0.1% BSA; room temperature
# 14-3-3γ = target: T2, 14-3-3γ (UniProt P61981 1-247); experiment: fluorescence polarisation; fluorescence anisotropy; 14-3-3γ titrated to FITC-labeled macrocycles F1-F4 and pepD (10 nM); mean ± SD, n = 3
# T2 construct: 14-3-3 protein, gamma isoform; also called 14-3-3 protein
# T2 sequence (looked up): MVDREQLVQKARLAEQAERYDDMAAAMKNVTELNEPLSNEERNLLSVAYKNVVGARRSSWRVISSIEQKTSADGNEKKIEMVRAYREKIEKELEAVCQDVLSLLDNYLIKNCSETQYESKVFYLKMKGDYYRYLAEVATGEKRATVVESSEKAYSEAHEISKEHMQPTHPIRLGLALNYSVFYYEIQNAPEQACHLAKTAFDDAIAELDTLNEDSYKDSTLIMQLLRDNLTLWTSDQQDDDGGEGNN
# 14-3-3β = target: T3, 14-3-3β (UniProt P31946 1-246); experiment: fluorescence polarisation; two-dimensional fluorescence anisotropy; 14-3-3β titrated to FITC-labeled F1, F2, F3, F4 or pepD (10 nM) with varying concentrations of ChREBP peptide; fitted to a thermodynamic cooperativity model with KD II fixed at 1.5 µM; n = 2
# T3 construct: 14-3-3 protein, beta isoform; also called 14-3-3 protein
# T3 sequence (looked up): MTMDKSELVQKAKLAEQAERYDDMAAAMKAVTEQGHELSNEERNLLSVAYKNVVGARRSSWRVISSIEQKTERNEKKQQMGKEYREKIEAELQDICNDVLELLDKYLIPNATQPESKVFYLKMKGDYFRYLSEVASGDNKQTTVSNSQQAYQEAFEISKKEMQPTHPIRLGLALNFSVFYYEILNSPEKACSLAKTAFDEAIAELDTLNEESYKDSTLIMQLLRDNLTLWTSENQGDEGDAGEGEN
# [3] = target: T4, full-length human 14-3-3γ protein with a N-terminal His6 tag (human, UniProt P61981 1-247); experiment: ITC; 200 μM macrocycle or pepD titrated to 20 μM 14-3-3γ; 25 mM HEPES pH 8.0, 100 mM NaCl, 10 mM MgCl2, 500 µM TCEP; 25 °C; fitted with SEDPHAT; mean ± SD, n=3
# T4 construct: 14-3-3 protein gamma, human, full length; TEV cleavage of the His6 tag is told only for the 14-3-3σ ΔC construct; source: E. coli BL21(DE3), pPROEX HTb, purified (Ni-NTA, dialysis)
# T4 sequence (looked up): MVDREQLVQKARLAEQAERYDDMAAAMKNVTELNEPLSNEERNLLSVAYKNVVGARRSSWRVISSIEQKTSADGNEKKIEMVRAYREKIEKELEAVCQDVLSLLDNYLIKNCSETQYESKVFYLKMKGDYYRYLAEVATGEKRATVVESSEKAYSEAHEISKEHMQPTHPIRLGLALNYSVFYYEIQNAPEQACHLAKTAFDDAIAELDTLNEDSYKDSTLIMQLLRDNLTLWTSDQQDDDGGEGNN
# [4] = target: T5, recombinant 14-3-3γ-Twinstrep protein (human, UniProt P61981 1-247); experiment: SPR; kinetic fit (1:1 model, global); Twinstrep-tagged 14-3-3γ captured on a Strep-Tactin XT chip (about 1000 RU), 2-fold dilutions of Ac-macrocycle or pepD injected; multi-cycle; 25 °C; 10 mM HEPES pH 7.4, 200 mM NaCl, 50 μM EDTA, 0.005% P20; two replicates and their average
# T5 construct: 14-3-3 protein gamma; The expression of the Twinstrep construct is not described; also called Twinstrep-tagged 14-3-3γ; source: recombinant
# T5 sequence (looked up): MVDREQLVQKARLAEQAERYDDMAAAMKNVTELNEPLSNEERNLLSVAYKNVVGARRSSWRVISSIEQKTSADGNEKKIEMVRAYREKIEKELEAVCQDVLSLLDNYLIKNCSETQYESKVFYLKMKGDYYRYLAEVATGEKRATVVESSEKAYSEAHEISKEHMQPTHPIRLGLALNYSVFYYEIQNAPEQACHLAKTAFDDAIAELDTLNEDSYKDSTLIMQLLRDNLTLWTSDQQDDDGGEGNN
# [5] = target: T5, recombinant 14-3-3γ-Twinstrep protein; experiment: SPR; affinity fit (steady-state response against concentration, 1:1 model); Twinstrep-tagged 14-3-3γ captured on a Strep-Tactin XT chip, 2-fold dilutions of Ac-macrocycle or pepD injected; 25 °C; 10 mM HEPES pH 7.4, 200 mM NaCl, 50 μM EDTA, 0.005% P20; two replicates and their average
# [6] = target: T1, full-length human 14-3-3β protein with …; experiment: fluorescence polarisation; selectivity assay by fluorescence anisotropy: acetylated 14-3-3 client peptides titrated (from 100 μM, 2-fold) to 10 nM FITC-labeled macrocycle F2 or F4 bound to 14-3-3β (7 μM for 2, 2 μM for 4); 10 mM HEPES pH 7.4, 150 mM NaCl, 0.1% Tween20, 0.1% BSA; room temperature
binder,measurement,setting,value
SFSXFKXK (not fully specified; phosphoserine; Phe(+1) triazole cyclised to the backbone amide nitrogen of Lys(+5) through a linker x = 3 (from 4-pentyn-1-ol); β-homoSer(+2); β-Ala(+3); Nph(+4); β-Ala and a lysine whose side chain carries fluorescein isothiocyanate (FITC) after Lys(+5)) [fluorescently labeled macrocycle F3],Kd,[1],0.63 µM
same,Kd,[2],0.38 µM
"SFSXFKXK (not fully specified; fluorescein isothiocyanate (FITC) on the side chain of the first lysine; β-alanine after it; phosphoserine; triazole from azido phenylalanine (replacing Nph(+1)) cyclised to the backbone amide nitrogen between Lys(+5) and Nph(+4), linker x = 1; β-homoSer(+2); β-Ala(+3); 4-nitrophenylalanine Nph(+4)) [macrocycle F1]",Kd,14-3-3γ,57 µM
same,Kd,14-3-3β,72 ± 1.4 µM
"SFSXFK (not fully specified; phosphoserine (position 0); phenylalanine(+1) with a triazole (from azido phenylalanine, replacing Nph(+1)) cyclised to the backbone amide nitrogen of Lys(+5) through an alkyl linker x = 4 (from 5-hexyn-1-ol); β-homoSer(+2); β-Ala(+3); 4-nitrophenylalanine Nph(+4); Ac- (Ac-macrocycles)) [macrocycle 4]",Kd,[3],1050 nM
same,Kd,[4],1140 nM and 1030 nM and 1100 nM
same,Kd,[5],1180 nM and 1130 nM and 1200 nM
"Ac-RPRTQ[pS]APHRRRPP-NH2 (SMILES CC(=O)N[C@@H](CCCNC(=N)N)C(=O)N1CCC[C@H]1C(=O)N[C@@H](CCCNC(=N)N)C(=O)N[C@H](C(=O)N[C@@H](CCC(N)=O)C(=O)N[C@@H](COP(=O)(O)O)C(=O)N[C@@H](C)C(=O)N1CCC[C@H]1C(=O)N[C@@H](Cc1c[nH]cn1)C(=O)N[C@@H](CCCNC(=N)N)C(=O)N[C@@H](CCCNC(=N)N)C(=O)N[C@@H](CCCNC(=N)N)C(=O)N1CCC[C@H]1C(=O)N1CCC[C@H]1C(N)=O)[C@@H](C)O, NOTCH4, 14-3-3 client peptide; source: synthetic peptide, bought: GenScript Biotech Corp) [NOTCH4 client peptide]",binding result,[6],binds
"Ac-RDRSS[pS]APNVH-NH2 (SMILES CC(=O)N[C@@H](CCCNC(=N)N)C(=O)N[C@@H](CC(=O)O)C(=O)N[C@@H](CCCNC(=N)N)C(=O)N[C@@H](CO)C(=O)N[C@@H](CO)C(=O)N[C@@H](COP(=O)(O)O)C(=O)N[C@@H](C)C(=O)N1CCC[C@H]1C(=O)N[C@@H](CC(N)=O)C(=O)N[C@H](C(=O)N[C@@H](Cc1c[nH]cn1)C(N)=O)C(C)C, B-RAF, 14-3-3 client peptide; source: synthetic peptide, bought: GenScript Biotech Corp) [B-RAF client peptide]",binding result,[6],binds
"Ac-RDKIRLNNAIWRAWYIQYVKRRKSPV-NH2 (also called S (in the model); source: synthetic peptide, bought: GenScript Biotech Corp) [acetylated ChREBP peptide]",binding result,[6],binds
Ac-[pS][azidoPhe][β3hS][βAla][Phe(4-NO2)]K (bridge 2-6; not fully specified (bridges); also: triazole of Phe(+1) (from azido phenylalanine) cyclised to backbone amide nitrogen of Lys(+5)) [macrocycle 3],Kd,[3],167 nM
same,Kd,[4],220 nM and 233 nM and 230 nM
same,Kd,[5],228 nM and 253 nM and 240 nM
"[pS][Phe(4-NO2)][β3hS][βAla][Phe(4-NO2)]K (also: FITC label, site not given here) [FITC-labeled pepD]",Kd,[1],8.9 µM
same,Kd,[2],7.5 µM
"Ac-QGLLDALDLAS-NH2 (ExoS (exoenzyme S), 14-3-3 client peptide; source: synthetic peptide, bought: GenScript Biotech Corp) [ExoS client peptide]",binding result,[6],binds
